# From paper PMC6515479, “An Investigation on Glucuronidation Metabolite Identification, Isozyme Contribution, and Species Differences of GL-V9 In Vitro and In Vivo” (Molecules, 2019)
# B1: rUGT1A7 (Homo sapiens) (protein)
# chain: GKLLVVPMDGSHWFTMQSVVEKLILRGHEVVVVMPEVSWQLGRSLNCTVKTYSTSYTLEDQDREFMVFADARWTAPLRSAFSLLTSSSNGIFDLFFSNCRSLFNDRKLVEYLKESCFDAVFLDPFDACGLIVAKYFSLPSVVFARGIFCHYLEEGAQCPAPLSYVPRLLLGFSDAMTFKERVWNHIMHLEEHLFCPYFFKNVLEIASEILQTPVTAYDLYSHTSIWLLRTDFVLEYPKPVMPNMIFIGGINCHQGKPVPMEFEAYINASGEHGIVVFSLGSMVSEIPEKKAMAIADALGKIPQTVLWRYTGTRPSNLANNTILVKWLPQNDLLGHPMTRAFITHAGSHGVYESICNGVPMVMMPLFGDQMDNAKRMETKGAGVTLNVLEMTSEDLENALKAVINDKSYKENIMRLSSLHKDRPVEPLDLAVFWVEFVMRHKGAPHLRPAAHDLTWYQYHSLDVIGFLLAVVLTVAFITFKCCAYGYRKCLGKKGRVKKAHKSKTH
# notes: purchased Corning (Woburn, MA, USA)
# B2: rUGT1A9 (Homo sapiens) (protein)
# chain: GKLLVVPMDGSHWFTMRSVVEKLILRGHEVVVVMPEVSWQLGRSLNCTVKTYSTSYTLEDLDREFKAFAHAQWKAQVRSIYSLLMGSYNDIFDLFFSNCRSLFKDKKLVEYLKESSFDAVFLDPFDNCGLIVAKYFSLPSVVFARGILCHYLEEGAQCPAPLSYVPRILLGFSDAMTFKERVRNHIMHLEEHLLCHRFFKNALEIASEILQTPVTEYDLYSHTSIWLLRTDFVLDYPKPVMPNMIFIGGINCHQGKPLPMEFEAYINASGEHGIVVFSLGSMVSEIPEKKAMAIADALGKIPQTVLWRYTGTRPSNLANNTILVKWLPQNDLLGHPMTRAFITHAGSHGVYESICNGVPMVMMPLFGDQMDNAKRMETKGAGVTLNVLEMTSEDLENALKAVINDKSYKENIMRLSSLHKDRPVEPLDLAVFWVEFVMRHKGAPHLRPAAHDLTWYQYHSLDVIGFLLAVVLTVAFITFKCCAYGYRKCLGKKGRVKKAHKSKTH
# notes: as for B1
# B3: rUGT1A8 (Homo sapiens) (protein)
# chain: GKLLVVPMDGSHWFTMQSVVEKLILRGHEVVVVMPEVSWQLGKSLNCTVKTYSTSYTLEDLDREFMDFADAQWKAQVRSLFSLFLSSSNGFFNLFFSHCRSLFNDRKLVEYLKESSFDAVFLDPFDACGLIVAKYFSLPSVVFARGIACHYLEEGAQCPAPLSYVPRILLGFSDAMTFKERVRNHIMHLEEHLFCQYFSKNALEIASEILQTPVTAYDLYSHTSIWLLRTDFVLDYPKPVMPNMIFIGGINCHQGKPLPMEFEAYINASGEHGIVVFSLGSMVSEIPEKKAMAIADALGKIPQTVLWRYTGTRPSNLANNTILVKWLPQNDLLGHPMTRAFITHAGSHGVYESICNGVPMVMMPLFGDQMDNAKRMETKGAGVTLNVLEMTSEDLENALKAVINDKSYKENIMRLSSLHKDRPVEPLDLAVFWVEFVMRHKGAPHLRPAAHDLTWYQYHSLDVIGFLLAVVLTVAFITFKCCAYGYRKCLGKKGRVKKAHKSKTH
# notes: as for B1
# Legend:
# Type in all cases: in vitro ADME, human
# [1] = substrate: COc1c(OCCCCN2CCCC2)cc(O)c2c(=O)cc(-c3ccccc3)oc12; assay: Recombinant enzyme kinetics of GL-V9 glucuronidation, rUGT1A7; settings: other: formation of 5-O-glucuronide GL-V9, rUGT1A7, protein 0.05 mg/mL, 1 h at 37 °C, mean ± SD, n = 3, pH 7.4
# Description: [The source words this procedure for another target and says it was used here with some conditions changed.] (§1) The composition of the incubation system (200 μL) contained liver microsomes of different species (0.1 mg protein/mL), 5 mM saccharolactone (D-saccharic acid 1,4-lactone monohydrate), 10 mM MgCl2, alamethicin (50 μg/mg protein), Tris-HCl buffer (50 mM, pH 7.4) and GL-V9 (1 μM). After 5 min of preincubation at 37 °C, UDPGA (5 mM) was added to initiate the phase II reaction. Control incubation samples were performed without UDPGA or without substrates (GL-V9). The reaction was terminated by addition of ice-cold methanol (three volumes) after incubation for 1 h at 37 °C. Samples were vortexed, centrifuged at 21,500× g for 10 min and then stored at 4 °C until HPLC-UV-TripleTOF analysis. To confirm that these metabolites are conjugates resulting from glucuronidation reaction, enzymatic hydrolysis of samples was processed. β-glucuronidase (100 KU, Sigma) was added and the hydrolysis was performed overnight at 37 °C. The control samples were carried out without β-glucuronidase under the same condition.
# (§2) Rates of the glucuronidation of GL-V9 were described as amounts of glucuronides formed per minute per milligram (pmol/min/mg). The calculation model of kinetic parameters was selected by the profile of Eadie-Hofstee plots. It often includes three possibilities: (1) the Eadie-Hofstee plot was linear, the formation rates of glucuronides (V) at different substrate concentrations (C) were fit to the standard Michaelis-Menten calculation of GraphPad Prism (version 6.02, GraphPad Software Inc., Guildford, Surrey, UK); (2) the Eadie-Hofstee plot was atypical kinetic-autoactivation, the rates and concentration were fit with the allosteric sigmoidal function of GraphPad Prism; (3) the Eadie-Hofstee plot was atypical kinetic-biphasic, the rates and concentration were fit with the […] of GraphPad Prism.
# [2] = substrate: COc1c(OCCCCN2CCCC2)cc(O)c2c(=O)cc(-c3ccccc3)oc12; assay: Recombinant enzyme kinetics of GL-V9 glucuronidation, rUGT1A9; settings: other: formation of 5-O-glucuronide GL-V9, rUGT1A9, protein 0.06 mg/mL, 1 h at 37 °C, mean ± SD, n = 3, pH 7.4
# [3] = substrate: COc1c(OCCCCN2CCCC2)cc(O)c2c(=O)cc(-c3ccccc3)oc12; assay: Recombinant enzyme kinetics of GL-V9 glucuronidation, rUGT1A8; settings: other: formation of 5-O-glucuronide GL-V9, rUGT1A8, protein 0.06 mg/mL, 1 h at 37 °C, mean ± SD, n = 3, pH 7.4
# Description: [The source words this procedure for another target and says it was used here with some conditions changed.] as §1, §2
protein,measurement,setting,value
B1,Km,[1],3.25 ± 0.29 µM
same,Vmax,[1],3.11e-05 µmol/min/mg
same,Vmax/Km,[1],9.58 µL/min/mg
B2,Km,[2],4.72 ± 0.28 µM
same,Vmax,[2],0.000148 µmol/min/mg
B3,Km,[3],13.92 ± 1.05 µM
same,Vmax,[3],5.06e-05 µmol/min/mg
same,Vmax/Km,[3],3.64 µL/min/mg
